Results reported in patent US20110293511A1, “SPECIFIC BINDING PROTEINS AND USES THEREOF” (priority 2009, published 2011).

Assays:
[1] = test system: glioblastomas not preselected for EGFR status; experiment: immunohistochemistry of 46 unselected glioblastomas; type: binding, human
Method: Immunohistochemical analysis was performed using […] sections of fresh frozen tissue applied to histology slides and fixed for 10 minutes in cold acetone. Bound primary antibody was detected with biotinylated horse anti-mouse antibody followed by an avidin-biotin-complex reaction. Diaminobenzidine tetrahydrochloride (DAB) was used as chromogen. The extent of the immunohistochemical reactivity in tissues was estimated by light microscopy and graded according to the number of immunoreactive cells in 25% increments as follows:
The 528 antibody was strongly and homogeneously positive in all samples except two (Nos. 27 and 29) (44/46, 95.7%).

wtEGFR on A431 cells = biological target: T1, wtEGFR on A431 cells (Homo sapiens, UniProt P00533); experiment: Scatchard analysis on A431 cells; type: binding
T1 construct: endogenous in cells; host or cells: A431 human squamous carcinoma cells

denaturated sEGFR = biological target: T2, denaturated sEGFR (Homo sapiens, UniProt P00533); experiment: BIAcore with immobilized sEGFR; type: binding
T2 construct: sEGFR is the recombinant extracellular domain (amino acids 1-621) of the wild-type EGFR); host or cells: CHO cells
Method: In a second set of BIAcore experiments, sEGFR was immobilized on a CM microsensor chip at a surface density of ˜4000RU. Serial dilutions of mAbs were tested for reactivity with sEGFR.

[2] = test system: U87MG.DK brain xenografts; experiment: intracranial glioma xenograft treatment; type: in vivo, nude mice; conditions: i.p. day 0 through 14
EGFR of A431 cells = biological target: T3, EGFR of A431 cells (Homo sapiens, UniProt P00533); experiment: ELISA of 806 reactivity in A431 lysate with AG1478; type: cell-based; conditions: AG1478 0.5 μM and 5 μM, 10 min at 37° C.
T3 construct: endogenous in cells; host or cells: A431 human squamous carcinoma cells
Method: Cells were placed in serum free media overnight, then treated with AG1478 for 10 min at 37° C., washed twice in PBS, then lysed in 1% Triton and lysates prepared by centrifugation for 10 min at 12,000 g. […] Plates were then blocked with 10% serum albumin/PBS for 2 hours at 37° C. and washed twice. A 1:20 cell lysate was added in 10% serum albumin/PBS for 1 hour at 37° C., then washed four times. Anti-EGFR(SC-03; Santa Cruz Biotechnology Inc.) in 10% serum albumin/PBS was reacted 90 min at room temperature, the plate washed four times, and anti-rabbit-HRP (1:2000 if from Silenus) in 10% serum albumin/PBS was added for 90 min at room temperature, washed four times, and color developed using ABTS as a substrate.

[3] = test system: U87MG.wtEGFR brain xenografts; experiment: intracranial glioma xenograft treatment; type: in vivo, nude mice; conditions: i.p. day 0 through 14

B1: mAb806: murine IgG2b monoclonal antibody, clone 806, ATCC PTA-3858; VH SEQ ID NO:2, VL SEQ ID NO:4 (antibody, listed as Mus musculus, V domains shown)
VH: MRVLILLWLFTAFPGVLSDVQLQESGPSLVKPSQSLSLTCTVTGYSITSDFAWNWIRQFPGNKLEWMGYISYSGNTRYNPSLKSRISITRDTSKNQFFLQLNSVTIEDTATYYCVTAGRGFPYWGQGTLVTVSA
VL: MVSTAQFLAFLLLWFPGARCDILMTQSPSSMSVSLGDTVSITCHSSQDINSNIGWLQQRPGKSFKGLIYHGTNLDDEVPSRFSGSGSGADYSLTISSLESEDFADYYCVQYAQFPWTFGGGTKLEIKR
23 days: median survival [3]
++++ (++++=>75%): Immunoreactivity ([1]; glioblastoma #1, EGFR Amp. A, 5′ MUT) | Immunoreactivity ([1]; glioblastoma #2, EGFR Amp. N, WT) | Immunoreactivity ([1]; glioblastoma #3, EGFR Amp. N, A2) | Immunoreactivity ([1]; glioblastoma #4, EGFR Amp. N, WT) | Immunoreactivity ([1]; glioblastoma #5, EGFR Amp. N, 5′ MUT) | Immunoreactivity ([1]; glioblastoma #6, EGFR Amp. A, WT) | Immunoreactivity ([1]; glioblastoma #7, EGFR Amp. N, 5′ MUT) | Immunoreactivity ([1]; glioblastoma #8, EGFR Amp. A, 5′ MUT) | Immunoreactivity ([1]; glioblastoma #9, EGFR Amp. A, WT) | Immunoreactivity ([1]; glioblastoma #13, EGFR Amp. N, WT) | Immunoreactivity ([1]; glioblastoma #18, EGFR Amp. A, 5′ MUT) | Immunoreactivity ([1]; glioblastoma #19, EGFR Amp. N, WT) | Immunoreactivity ([1]; glioblastoma #21, EGFR Amp. N, WT) | Immunoreactivity ([1]; glioblastoma #23, EGFR Amp. N, 5′ MUT) | Immunoreactivity ([1]; glioblastoma #24, EGFR Amp. A, WT) | Immunoreactivity ([1]; glioblastoma #26, EGFR Amp. A, 5′ MUT) | Immunoreactivity ([1]; glioblastoma #30, EGFR Amp. N, WT) | Immunoreactivity ([1]; glioblastoma #33, EGFR Amp. A, 5′ MUT) | Immunoreactivity ([1]; glioblastoma #40, EGFR Amp. A, WT) | Immunoreactivity ([1]; glioblastoma #42, EGFR Amp. A, WT)
9.5e+07 M⁻¹: affinity for the wtEGFR on A431 cells (wtEGFR on A431 cells; Scatchard, average of three experiments)
neg.: Immunoreactivity ([1]; glioblastoma #10, EGFR Amp. N, WT) | Immunoreactivity ([1]; glioblastoma #14, EGFR Amp. Nd, nd) | Immunoreactivity ([1]; glioblastoma #16, EGFR Amp. N, nd) | Immunoreactivity ([1]; glioblastoma #17, EGFR Amp. N, WT) | Immunoreactivity ([1]; glioblastoma #20, EGFR Amp. N, WT) | Immunoreactivity ([1]; glioblastoma #22, EGFR Amp. N, WT) | Immunoreactivity ([1]; glioblastoma #25, EGFR Amp. N, WT) | Immunoreactivity ([1]; glioblastoma #27, EGFR Amp. N, WT) | Immunoreactivity ([1]; glioblastoma #28, EGFR Amp. N, WT) | Immunoreactivity ([1]; glioblastoma #29, EGFR Amp. N, WT) | Immunoreactivity ([1]; glioblastoma #31, EGFR Amp. N, nd) | Immunoreactivity ([1]; glioblastoma #35, EGFR Amp. A, 5′ MUT) | Immunoreactivity ([1]; glioblastoma #38, EGFR Amp. N, WT) | Immunoreactivity ([1]; glioblastoma #39, EGFR Amp. N, 5′ MUT) | Immunoreactivity ([1]; glioblastoma #41, EGFR Amp. N, WT) | Immunoreactivity ([1]; glioblastoma #43, EGFR Amp. nd, nd) | Immunoreactivity ([1]; glioblastoma #44, EGFR Amp. N, WT) | Immunoreactivity ([1]; glioblastoma #45, EGFR Amp. N, WT) | Immunoreactivity ([1]; glioblastoma #46, EGFR Amp. N, nd)
++ (++=25-50%): Immunoreactivity ([1]; glioblastoma #11, EGFR Amp. A, 5′ MUT) | Immunoreactivity ([1]; glioblastoma #12, EGFR Amp. A, 5′ MUT) | Immunoreactivity ([1]; glioblastoma #15, EGFR Amp. N, WT) | Immunoreactivity ([1]; glioblastoma #36, EGFR Amp. A, 5′ MUT)
27/46: positive cases / glioblastomas ([1]; panel of 46)
significantly increased: mAb806 binding in the presence of increasing amounts of AG1478 (EGFR of A431 cells)
strongly reactive: reactivity with denaturated sEGFR (denaturated sEGFR)
+ (+=5-25%): Immunoreactivity ([1]; glioblastoma #37, EGFR Amp. A, 5′ MUT)
+++ (+++=50-75%): Immunoreactivity ([1]; glioblastoma #32, EGFR Amp. N, 5′ MUT) | Immunoreactivity ([1]; glioblastoma #34, EGFR Amp. N, WT)
did not extend survival: effect on survival [2]
2.3×10^5: receptors (binding sites) per cell (wtEGFR on A431 cells; A431 cells)
